Legend:
[1] = biological target: 人TPO受体(MPL)，表达于Ba/F3细胞 (human) (UniProt P40238); test: cell-based or functional assay
[2] = biological target: 人TPO受体(MPL)，表达于Ba/F3细胞 (human) (UniProt P40238); test: cell-based or functional assay; remark: listed apart in the source

| ED50，BaF/mpl细胞增殖(WST-8) [1] | ED50，TPO样激动剂活性(BaF/mpl细胞增殖，WST-8) [2] | Molecule |
| --- | --- | --- |
| 0.027 nM |  | 人TPO(R&D Systems) (from UniProt P40225 22-353) (ligand) |
|  | 29 nM | 抗体12B5(IgG) (antibody, from another filing) scFv: QVQLVQSGGGLVRPGGSLSLSCAVSGITLRTYGMHWVRQAPGKGLEWVAGISFDGRSEYYADSVQGRFTISRDSSKNTLYLQMNSLRAEDTAVYYCARGAHYGFDIWGQGTMVTVSSGGGGTGGGGSGGGGSDIQMTQSPSTLSASIGDRVTITCRASEGIYHWLAWYQQKPGKAPKLLIYKASSLASGAPSRFSGSGSGTDFTLTISSLQPDDFATYYCQQYSNYPLTFGGGTKLEIK |
